Results reported in EP0656117B1.

How the values were obtained:
[1] = target: interleukin 6 receptor gp 80 (soluble Human Recombinant IL-6R) (human) (UniProt P08887); experiment: recovery of particles from balls coated with receptor, elution pH 3.6
[2] = target: interleukin 6 receptor gp 80 (soluble Human Recombinant IL-6R) (human) (UniProt P08887); experiment: panning of a 1:1 mixture of 176 Arg and 179 Ala phasmids on receptor in solid phase, elution pH 3.6
[3] = target: interleukin 6 receptor gp 80 (soluble Human Recombinant IL-6R) (human) (UniProt P08887); experiment: receptor binding assay, format not described
[4] = target: interleukin 6 receptor gp 80 (soluble Human Recombinant IL-6R) (human) (UniProt P08887); experiment: cell-based or functional assay
[5] = target: interleukin 6 receptor gp 80 (soluble Human Recombinant IL-6R) (human) (UniProt P08887); experiment: panning of a 1:100 mixture with M13K07 on polystyrene balls coated with shrIL-6R, elution pH 3.6 (eluate 1:10)
[6] = target: interleukin 6 receptor gp 80 (soluble Human Recombinant IL-6R) (human) (UniProt P08887); experiment: receptor binding assay, format not described; protein from bacterial periplasm

Chain of UniProt P08887 (P08887 20-355 limits assumed): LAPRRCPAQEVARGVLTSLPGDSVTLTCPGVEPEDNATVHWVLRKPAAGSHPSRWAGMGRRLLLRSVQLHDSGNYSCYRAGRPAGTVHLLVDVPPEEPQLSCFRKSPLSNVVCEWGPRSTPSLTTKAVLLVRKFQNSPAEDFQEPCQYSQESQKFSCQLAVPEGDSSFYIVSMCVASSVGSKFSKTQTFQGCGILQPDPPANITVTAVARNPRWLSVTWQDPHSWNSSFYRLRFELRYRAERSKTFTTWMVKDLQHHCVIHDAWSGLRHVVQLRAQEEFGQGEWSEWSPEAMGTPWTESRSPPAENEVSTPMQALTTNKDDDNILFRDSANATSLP

“176 Arg phasmid (hIL-6 mutant 176 Arg shown on phasmid) (from UniProt P05231 30-212)” was tested, and the particles recovered relative to phasmid hIL-6 [1] was 3 relative and the ratio of particles in the eluate against 179 Ala phasmid [2] was 15 ratio (to 1).

“179 Ala phasmid (hIL-6 mutant 179 Ala shown on phasmid) (from UniProt P05231 29-212)” was tested, and the particles recovered relative to phasmid hIL-6 [1] was 0.2 relative.

Work on “IL-6 Ser118Arg/Val121Asp (from UniProt P05231 29-212) (ligand)” yielded a Receptor binding (% of wild type) [3] of 66%.

With “IL-6 Tyr31Asp/Gly35Phe/Ser118Arg/Val121Asp (from UniProt P05231 29-212) (ligand)” the 50% inhibition of interleukin 6 activity on hepatoma cells Hep3B (wild type IL-6 4 ng/ml) [4] was 164 ng/mL, the 50% inhibition of interleukin 6 activity on hepatoma cells HepG2 (wild type IL-6 4 ng/ml) [4] was 132 ng/mL and the 50% inhibition of interleukin 6 activity on myeloma cells XG-1 (wild type IL-6 0.1 ng/ml) [4] was 190 ng/mL. It also gave an Inhibition of wild IL-6 (%) on human hepatoma cells (wild IL-6 4 ng/ml) at antagonist 16 ng/ml (4 X molar excess, 0.7 nM) [4] of 23%, an Inhibition of wild IL-6 (%) on human hepatoma cells (wild IL-6 4 ng/ml) at antagonist 60 ng/ml (15 X molar excess, 2.7 nM) [4] of 28% and an Inhibition of wild IL-6 (%) on human hepatoma cells (wild IL-6 4 ng/ml) at antagonist 164 ng/ml (41 X molar excess, 7.5 nM) [4] of 50%. For the same substance, the Inhibition of wild IL-6 (%) on human hepatoma cells (wild IL-6 4 ng/ml) at antagonist 500 ng/ml (125 X molar excess, 22.7 nM) [4] was 75%, the Inhibition of wild IL-6 (%) on human hepatoma cells (wild IL-6 4 ng/ml) at antagonist 1000 ng/ml (250 X molar excess, 45.5 nM) [4] was 82% and the Inhibition of wild IL-6 (%) on human hepatoma cells (wild IL-6 4 ng/ml) at antagonist 2000 ng/ml (500 X molar excess, 90.0 nM) [4] was 90%. For the same substance, the Inhibition of wild IL-6 (%) on human hepatoma cells (wild IL-6 4 ng/ml) at antagonist 4000 ng/ml (1000 X molar excess, 181.8 nM) [4] was 96%, the Inhibition of wild type interleukin 6 activity (growth of XG-1 human myeloma cells, wild type IL-6 0.1 ng/ml) at antagonist 3.3 ng/ml [4] was 6% and the Inhibition of wild type interleukin 6 activity (growth of XG-1 human myeloma cells, wild type IL-6 0.1 ng/ml) at antagonist 10 ng/ml [4] was 12%. The Inhibition of wild type interleukin 6 activity (growth of XG-1 human myeloma cells, wild type IL-6 0.1 ng/ml) at antagonist 30 ng/ml [4] was 25%, the Inhibition of wild type interleukin 6 activity (growth of XG-1 human myeloma cells, wild type IL-6 0.1 ng/ml) at antagonist 90 ng/ml [4] was 42% and the Inhibition of wild type interleukin 6 activity (growth of XG-1 human myeloma cells, wild type IL-6 0.1 ng/ml) at antagonist 270 ng/ml [4] was 64%. It also gave an Inhibition of wild type interleukin 6 activity (growth of XG-1 human myeloma cells, wild type IL-6 0.1 ng/ml) at antagonist 810 ng/ml [4] of 84%, an Inhibition of wild type interleukin 6 activity (growth of XG-1 human myeloma cells, wild type IL-6 0.1 ng/ml) at antagonist 2430 ng/ml [4] of 90% and an Inhibition of wild type interleukin 6 activity (growth of XG-1 human myeloma cells, wild type IL-6 0.1 ng/ml) at antagonist 7290 ng/ml [4] of 93%. It also gave a Receptor binding (% of wild type) [3] of 97% and a Receptor binding (% of wt) [3] of 97%.

Substance “IL-6 Tyr31Asp/Gly35Phe/Ser118Leu/Val121Asp (from UniProt P05231 29-212) (ligand)” has an Inhibition of wild type interleukin 6 activity (growth of XG-1 human myeloma cells, wild type IL-6 0.1 ng/ml) at antagonist 3.3 ng/ml [4] of 0%, an Inhibition of wild type interleukin 6 activity (growth of XG-1 human myeloma cells, wild type IL-6 0.1 ng/ml) at antagonist 10 ng/ml [4] of 3% and an Inhibition of wild type interleukin 6 activity (growth of XG-1 human myeloma cells, wild type IL-6 0.1 ng/ml) at antagonist 30 ng/ml [4] of 10%. For the same substance, the Inhibition of wild type interleukin 6 activity (growth of XG-1 human myeloma cells, wild type IL-6 0.1 ng/ml) at antagonist 90 ng/ml [4] was 31%, the Inhibition of wild type interleukin 6 activity (growth of XG-1 human myeloma cells, wild type IL-6 0.1 ng/ml) at antagonist 270 ng/ml [4] was 53% and the Inhibition of wild type interleukin 6 activity (growth of XG-1 human myeloma cells, wild type IL-6 0.1 ng/ml) at antagonist 810 ng/ml [4] was 71%. It also gave an Inhibition of wild type interleukin 6 activity (growth of XG-1 human myeloma cells, wild type IL-6 0.1 ng/ml) at antagonist 2430 ng/ml [4] of 76%, an Inhibition of wild type interleukin 6 activity (growth of XG-1 human myeloma cells, wild type IL-6 0.1 ng/ml) at antagonist 7290 ng/ml [4] of 81% and a Receptor binding (% of wild type) [3] of 63%.

Substance “IL-6 Tyr31Asp/Gly35Phe/Ser118Phe/Val121Asp (from UniProt P05231 29-212) (ligand)” has an Inhibition of wild type interleukin 6 activity (growth of XG-1 human myeloma cells, wild type IL-6 0.1 ng/ml) at antagonist 3.3 ng/ml [4] of 0%, an Inhibition of wild type interleukin 6 activity (growth of XG-1 human myeloma cells, wild type IL-6 0.1 ng/ml) at antagonist 10 ng/ml [4] of 7% and an Inhibition of wild type interleukin 6 activity (growth of XG-1 human myeloma cells, wild type IL-6 0.1 ng/ml) at antagonist 30 ng/ml [4] of 18%. The Inhibition of wild type interleukin 6 activity (growth of XG-1 human myeloma cells, wild type IL-6 0.1 ng/ml) at antagonist 90 ng/ml [4] was 35%, the Inhibition of wild type interleukin 6 activity (growth of XG-1 human myeloma cells, wild type IL-6 0.1 ng/ml) at antagonist 270 ng/ml [4] was 59% and the Inhibition of wild type interleukin 6 activity (growth of XG-1 human myeloma cells, wild type IL-6 0.1 ng/ml) at antagonist 810 ng/ml [4] was 84%. It also gave an Inhibition of wild type interleukin 6 activity (growth of XG-1 human myeloma cells, wild type IL-6 0.1 ng/ml) at antagonist 2430 ng/ml [4] of 90%, an Inhibition of wild type interleukin 6 activity (growth of XG-1 human myeloma cells, wild type IL-6 0.1 ng/ml) at antagonist 7290 ng/ml [4] of 95% and a Receptor binding (% of wild type) [3] of 76%.

In the case of M13K07 helper bacteriophage particles, the particles recovered relative to phasmid hIL-6 [1] is reported as 0.18 relative.

Work on “SAnt 1 (interleukin 6 Tyr31Asp/Gly35Phe/Ser118Arg/Val121Asp/Gln175Ile/Ser176Arg/Gln183Ala) (from UniProt P05231 29-212) (ligand)” yielded a 50% inhibition of interleukin 6 activity on hepatoma cells Hep3B (wild type IL-6 4 ng/ml) [4] of 19 ng/mL, a 50% inhibition of interleukin 6 activity on hepatoma cells HepG2 (wild type IL-6 4 ng/ml) [4] of 32 ng/mL and a 50% inhibition of interleukin 6 activity on myeloma cells XG-1 (wild type IL-6 0.1 ng/ml) [4] of 22 ng/mL. The Receptor binding (% of wt) [3] was 406%.

For “hIL-6 phasmid (phage particle with hIL6-pIII fusion molecules) (from UniProt P05231 30-212)”, the enrichment with respect to M13K07 [5] was 10 fold and the particles recovered relative to phasmid hIL-6 [1] was 1 relative.

With “interleukin 6 helix A and C mutant 31 Asp / 35 Phe / 118 Arg / 121 Val (from UniProt P05231 29-212) (ligand)” the Receptor binding (% of wild type) [3] was 66%.

“interleukin 6 helix C mutant 118 Arg / 121 Val (from UniProt P05231 29-212) (ligand)” gave a Receptor binding (% of wild type) [3] of 81%.

Substance “interleukin 6 helix C mutant 118 Leu / 121 Asp (from UniProt P05231 29-212) (ligand)” has a Receptor binding (% of wild type) [3] of 92%.

Work on “interleukin 6 helix C mutant 118 Ser / 121 Asp (from UniProt P05231 29-212) (ligand)” yielded a Receptor binding (% of wild type) [3] of 78%.

Substance “interleukin 6 helix D mutant of phage 4-8 (181 Ile, 183 Asn) (from UniProt P05231 29-212) (ligand)” has a Receptor binding (%) [6] of 100%.

Work on “interleukin 6 helix D mutant of phage 5-3 (175 Ile, 181 Val, 183 His) (from UniProt P05231 29-212) (ligand)” yielded a Receptor binding (%) [6] of 80%.

For “interleukin 6 helix D mutant of phage 5-4 (183 Tyr) (from UniProt P05231 29-212) (ligand)”, the Receptor binding (%) [6] was 240%.

“interleukin 6 helix D mutant of phage 5-8 (183 Ala) (from UniProt P05231 29-212) (ligand)” gave a Receptor binding (%) [6] of 240%.

“interleukin 6 mutant Gln175Ile/Gln183Ala (phage 5-2) (from UniProt P05231 29-212) (ligand)” gave a Receptor binding (%) [6] of 260%.

With “interleukin 6 mutant Gln175Ile/Ser176Arg/Gln183Ala (from UniProt P05231 29-212) (ligand)” the Receptor binding (%) [6] was 450%.

“wild type human interleukin 6 (from UniProt P05231 30-212) (ligand)” gave a Receptor binding (%) [6] of 100% and a Receptor binding (% of wild type) [3] of 100%.
